According to IntAct's records for PubMed 19229295:

B1: Bone morphogenetic protein receptor type-1B (Homo sapiens), O00238 (parent)
chain: MLLRSAGKLNVGTKKEDGESTAPTPRPKVLRCKCHHHCPEDSVNNICSTDGYCFTMIEEDDSGLPVVTSGCLGLEGSDFQCRDTPIPHQRRSIECCTERNECNKDLHPTLPPLKNRDFVDGPIHHRALLISVTVCSLLLVLIILFCYFRYKRQETRPRYSIGLEQDETYIPPGESLRDLIEQSQSSGSGSGLPLLVQRTIAKQIQMVKQIGKGRYGEVWMGKWRGEKVAVKVFFTTEEASWFRETEIYQTVLMRHENILGFIAADIKGTGSWTQLYLITDYHENGSLYDYLKSTTLDAKSMLKLAYSSVSGLCHLHTEIFSTQGKPAIAHRDLKSKNILVKKNGTCCIADLGLAVKFISDTNEVDIPPNTRVGTKRYMPPEVLDESLNRNHFQSYIMADMYSFGLILWEVARRCVSGGIVEEYQLPYHDLVPSDPSYEDMREIVCIKKLRPSFPNRWSSDECLRQMGKLMTECWAHNPASRLTALRVKKTLAKMSESQDIKL
partner: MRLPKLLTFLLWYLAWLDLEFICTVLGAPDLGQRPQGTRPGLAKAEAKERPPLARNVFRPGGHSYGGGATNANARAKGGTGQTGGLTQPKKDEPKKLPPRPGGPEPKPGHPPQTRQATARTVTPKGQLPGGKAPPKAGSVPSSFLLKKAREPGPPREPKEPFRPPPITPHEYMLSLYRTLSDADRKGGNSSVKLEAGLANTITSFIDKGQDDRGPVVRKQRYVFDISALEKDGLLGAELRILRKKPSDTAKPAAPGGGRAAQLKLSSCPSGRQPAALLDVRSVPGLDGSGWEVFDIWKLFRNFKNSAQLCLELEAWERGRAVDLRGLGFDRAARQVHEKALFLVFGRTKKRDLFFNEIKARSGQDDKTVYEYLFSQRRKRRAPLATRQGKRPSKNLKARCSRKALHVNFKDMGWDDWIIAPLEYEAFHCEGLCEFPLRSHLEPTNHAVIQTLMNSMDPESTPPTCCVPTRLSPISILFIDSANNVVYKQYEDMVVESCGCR
B2: Growth/differentiation factor 5 (Homo sapiens), P43026 (parent)
chain: B1 partner
B3: Bone morphogenetic protein receptor type-1B (Homo sapiens), O00238 (parent)
chain: B1 chain
partner: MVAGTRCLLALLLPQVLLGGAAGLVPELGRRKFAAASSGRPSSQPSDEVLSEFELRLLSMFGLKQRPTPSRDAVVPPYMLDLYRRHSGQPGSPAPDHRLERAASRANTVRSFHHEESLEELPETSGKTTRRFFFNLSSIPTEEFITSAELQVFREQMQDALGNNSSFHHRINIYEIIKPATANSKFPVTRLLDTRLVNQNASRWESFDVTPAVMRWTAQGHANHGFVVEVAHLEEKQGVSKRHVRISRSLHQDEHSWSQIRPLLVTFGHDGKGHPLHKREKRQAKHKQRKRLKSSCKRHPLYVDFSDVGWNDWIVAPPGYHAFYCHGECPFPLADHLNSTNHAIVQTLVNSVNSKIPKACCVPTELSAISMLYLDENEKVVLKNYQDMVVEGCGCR

Variants of: B1
Conditions: with gdf5_human GDF5, P43026

effect of a mutation on the interaction	Variant
decreasing interaction	Q80A

Variants of: B1
Conditions: with gdf5_human GDF5, P43026
Remark: another data set of the same source

effect of a mutation on the interaction	Variant
decreasing interaction	H36G
decreasing interaction	H35S

Variants of: B1
Conditions: with gdf5_human GDF5, P43026
Remark: another data set of the same source

effect of a mutation on the interaction	Variant
disrupting interaction	F79A

Variants of: B2
Conditions: with bmpr2_human BMPR2, Q13873
bmpr2_human BMPR2, Q13873, sequence (Q13873 whole entry): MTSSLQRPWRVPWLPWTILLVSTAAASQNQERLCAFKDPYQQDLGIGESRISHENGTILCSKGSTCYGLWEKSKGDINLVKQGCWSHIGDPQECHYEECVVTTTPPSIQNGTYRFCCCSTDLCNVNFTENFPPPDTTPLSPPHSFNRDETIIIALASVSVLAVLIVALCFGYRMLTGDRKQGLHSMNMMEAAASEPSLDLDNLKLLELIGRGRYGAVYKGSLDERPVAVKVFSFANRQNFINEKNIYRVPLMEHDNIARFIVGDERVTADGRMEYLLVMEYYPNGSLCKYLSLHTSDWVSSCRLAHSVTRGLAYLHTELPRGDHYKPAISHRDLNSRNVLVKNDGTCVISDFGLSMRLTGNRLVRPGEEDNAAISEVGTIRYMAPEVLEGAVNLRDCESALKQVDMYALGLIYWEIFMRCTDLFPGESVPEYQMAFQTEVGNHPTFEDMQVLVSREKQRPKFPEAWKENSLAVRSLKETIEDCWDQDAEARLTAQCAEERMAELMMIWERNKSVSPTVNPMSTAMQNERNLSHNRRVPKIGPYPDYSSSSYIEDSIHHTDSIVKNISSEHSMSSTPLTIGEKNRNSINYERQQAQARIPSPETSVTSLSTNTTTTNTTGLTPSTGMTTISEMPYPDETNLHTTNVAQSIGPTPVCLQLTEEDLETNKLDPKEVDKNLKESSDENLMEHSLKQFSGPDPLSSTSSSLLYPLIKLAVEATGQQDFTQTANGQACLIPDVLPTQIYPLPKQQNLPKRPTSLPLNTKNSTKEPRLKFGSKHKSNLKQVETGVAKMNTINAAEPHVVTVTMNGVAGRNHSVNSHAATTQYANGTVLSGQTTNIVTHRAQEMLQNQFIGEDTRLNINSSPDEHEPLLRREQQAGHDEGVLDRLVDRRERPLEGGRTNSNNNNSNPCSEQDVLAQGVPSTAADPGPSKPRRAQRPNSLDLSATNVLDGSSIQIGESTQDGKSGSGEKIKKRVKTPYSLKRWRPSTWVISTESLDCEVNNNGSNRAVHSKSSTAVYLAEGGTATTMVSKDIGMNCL

effect of a mutation on the interaction	Variant
decreasing interaction	R438A

Variants of: B2
Conditions: with bmr1b_human BMPR1B

effect of a mutation on the interaction	Variant
increasing interaction	R438L

Variants of: B2
Conditions: with bmpr2_human BMPR2, Q13873
Remark: another data set of the same source

effect of a mutation on the interaction	Variant
increasing interaction	R438L

Variants of: B2
Conditions: with bmr1a_human BMPR1A

effect of a mutation on the interaction	Variant
increasing interaction	R438L

Variants of: B2
Conditions: with bmr1b_human BMPR1B
Remark: another data set of the same source

effect of a mutation on the interaction	Variant
decreasing interaction	L441P

Variants of: B2
Conditions: with bmpr2_human BMPR2, Q13873
Remark: another data set of the same source

effect of a mutation on the interaction	Variant
increasing interaction	L441P

Variants of: B2
Conditions: with bmr1a_human BMPR1A
Remark: another data set of the same source

effect of a mutation on the interaction	Variant
disrupting interaction	L441P

Variants of: B3
Conditions: with bmp2_human BMP2, P12643

effect of a mutation on the interaction	Variant
decreasing interaction	H35S
decreasing interaction	H36G

Variants of: B3
Conditions: with bmp2_human BMP2, P12643
Remark: another data set of the same source

effect of a mutation on the interaction	Variant
disrupting interaction	F79A

Variants of: B3
Conditions: with bmp2_human BMP2, P12643
Remark: another data set of the same source

effect of a mutation on the interaction	Variant
decreasing interaction	Q80A
